In the assay the target is His-LHP1 (recombinant Prunus mume Like Heterochromatin Protein 1) (Prunus mume (Japanese apricot)). The experiment in a line: SPR; BIAcore X-100; PmLHP1 immobilized on a CM5 sensor chip by amine coupling; target protein diluted in a gradient; steady-state affinity model.

Experimental findings from article PMC11060673 are described below.

Turning to “Gst-AGL24 (recombinant Prunus mume AGAMOUS-like 24) (natural protein)”, the Kd came out at 20.6 µM.
